# According to PMC9094657, “A bioactive phlebovirus-like envelope protein in a hookworm endogenous virus” (Science Advances, 2022):
# Experiments:
# [1] = molecular target: Atlas GC ectodomain GPL binding pocket mutant R86A (Ancylostoma ceylanicum)
# [2] = molecular target: Atlas GC ectodomain fusion loop mutant F136A/F137A (Ancylostoma ceylanicum)
# [3] = molecular target: the molecule itself; test: SEC-MALS; Superdex 200 (10/300), 293 K, 20 mM tris pH 7.8, 0.15 M NaCl, 5% glycerol, 0.5 mM TCEP; 100 ul at 1.6 to 2.5 mg/ml; self-association (trimer)
molecule,measurement,setting,value
Atlas GC ectodomain GPL binding pocket mutant R86A (domain or fragment),stoichiometry N,[1],3
Atlas GC ectodomain fusion loop mutant F136A/F137A (domain or fragment),stoichiometry N,[2],3
"Atlas GC ectodomain (soluble ectodomain fragment of the phlebovirus GC-like Env of Ancylostoma ceylanicum Atlas virus, polyprotein residues 2330 to 2772) (domain or fragment, UniProt A0A016UZK2 2330-2772, looked up, The C-terminal V5 and histidine tags were optionally cleaved with carboxypeptidase A; The atomic model covers residues 2330 to 2769; also called GC trimer; WT) CSEVISVTSTEEVCTIQENKETCTFNHATTITLQPLQQQTCLTLNDPEKRPMGMLTVKPDGIKFRCNKKIEFFTRDHQIVSESVHRCHRAGSCHSDECHHVKDTDALPEFSSEANSRPGYTSCSSSCGCITCDGCFFCEPSCLFHRLYAIPTTPTIYSIFYCPSWELEVDAEISLQREDETTTSTIRLLPGRTSTWNNIRFSLIGTIVPQLPILSSAFVTNGRQTSIVKPAYAGQLQSNSVGQLQCPNLEAAKQFECHFSRNLCTCTNALHKVSCTCYDGSVEDHMEALPLPQTSKNFLVFEKDRNIYAKTHVGSALQLHIVAQDLKITTVKHTSHCQVEASDLSGCYSCTSGASLTLSCKSDNGEVLANMKCNEQTHVIRCTESGFINNILLMFDTSEVAADCTAACPGGIVNFTIKGLLAFVNERIISQSYSATDVERNIK",stoichiometry N,[3],3
